Results as given in patent US20040166543A1 (Dana-Farber, published 2004).

Biological target: T1, MUC1 (full-length wild-type DF3/MUC1 glycoprotein) (human, UniProt P15941 24-1255)
T1 construct: whole, on cells; One entry for endogenous and transfected wild-type MUC1; Co-immunoprecipitated from NP-40 lysates with mAb DF3; also called wild-type MUC1
Test: co-IP from ZR-75-1 lysate: anti-MUC1 IP, anti-PKCµ blot (FIG. 13B)

B1: PKCµ (protein kinase Cµ), endogenous in ZR-75-1 cells (enzyme, human, UniProt Q15139 1-912, looked up)
chain: MSAPPVLRPPSPLLPVAAAAAAAAAALVPGSGPGPAPFLAPVAAPVGGISFHLQIGLSREPVLLLQDSSGDYSLAHVREMACSIVDQKFPECGFYGMYDKILLFRHDPTSENILQLVKAASDIQEGDLIEVVLSASATFEDFQIRPHALFVHSYRAPAFCDHCGEMLWGLVRQGLKCEGCGLNYHKRCAFKIPNNCSGVRRRRLSNVSLTGVSTIRTSSAELSTSAPDEPLLQKSPSESFIGREKRSNSQSYIGRPIHLDKILMSKVKVPHTFVIHSYTRPTVCQYCKKLLKGLFRQGLQCKDCRFNCHKRCAPKVPNNCLGEVTINGDLLSPGAESDVVMEEGSDDNDSERNSGLMDDMEEAMVQDAEMAMAECQNDSGEMQDPDPDHEDANRTISPSTSNNIPLMRVVQSVKHTKRKSSTVMKEGWMVHYTSKDTLRKRHYWRLDSKCITLFQNDTGSRYYKEIPLSEILSLEPVKTSALIPNGANPHCFEITTANVVYYVGENVVNPSSPSPNNSVLTSGVGADVARMWEIAIQHALMPVIPKGSSVGTGTNLHRDISVSISVSNCQIQENVDISTVYQIFPDEVLGSGQFGIVYGGKHRKTGRDVAIKIIDKLRFPTKQESQLRNEVAILQNLHHPGVVNLECMFETPERVFVVMEKLHGDMLEMILSSEKGRLPEHITKFLITQILVALRHLHFKNIVHCDLKPENVLLASADPFPQVKLCDFGFARIIGEKSFRRSVVGTPAYLAPEVLRNKGYNRSLDMWSVGVIIYVSLSGTFPFNEDEDIHDQIQNAAFMYPPNPWKEISHEAIDLINNLLQVKMRKRYSVDKTLSHPWLQDYQTWLDLRELECKIGERYITHESDDLRWEKYAGEQGLQYPTHLINPSASHSDTPETEETEMKALGERVSIL
notes: whole, on cells
Question: Does B1 bind?
Answer: Result: no binding
